PMC4516351, “Est16, a New Esterase Isolated from a Metagenomic Library of a Microbial Consortium Specializing in Diesel Oil Degradation” (PLoS ONE, 2015)

Assays:
Experiment in all cases: purified protein
Format in all cases: biochemical, uncultured bacterium
[1] = test system: T1, CCCCCCCCCCCC(=O)Oc1ccc([N+](=O)[O-])cc1; conditions: 50 mM Tris-HCl pH 8.0, 30°C, 0.3% (v/v) triton X-100, 50 nM enzyme
T1 construct: full-length ORF (906 bp, 302 residues), pET28a, N-terminal His6-tag and thrombin site, tag cutting not mentioned; E. coli BL21(DE3); IMAC and SEC

[2] = test system: T2, CCCCCCCC(=O)Oc1ccc([N+](=O)[O-])cc1; conditions: 50 mM Tris-HCl pH 8.0, 30°C, 0.3% (v/v) triton X-100, 15 nM enzyme
T2 construct: full-length ORF (906 bp, 302 residues), pET28a, N-terminal His6-tag and thrombin site, tag cutting not mentioned; E. coli BL21(DE3); IMAC and SEC

[3] = test system: T3, CCCCCCCCCC(=O)Oc1ccc([N+](=O)[O-])cc1; conditions: 50 mM Tris-HCl pH 8.0, 30°C, 0.3% (v/v) triton X-100, 15 nM enzyme
T3 construct: full-length ORF (906 bp, 302 residues), pET28a, N-terminal His6-tag and thrombin site, tag cutting not mentioned; E. coli BL21(DE3); IMAC and SEC

[4] = test system: T4, CCCC(=O)Oc1ccc([N+](=O)[O-])cc1; conditions: 50 mM Tris-HCl pH 8.0, 30°C, 0.3% (v/v) triton X-100, 15 nM enzyme
T4 construct: full-length ORF (906 bp, 302 residues), pET28a, N-terminal His6-tag and thrombin site, tag cutting not mentioned; E. coli BL21(DE3); IMAC and SEC

[5] = test system: T5, CCCCC(=O)Oc1ccc([N+](=O)[O-])cc1; conditions: 50 mM Tris-HCl pH 8.0, 30°C, 0.3% (v/v) triton X-100, 15 nM enzyme
T5 construct: full-length ORF (906 bp, 302 residues), pET28a, N-terminal His6-tag and thrombin site, tag cutting not mentioned; E. coli BL21(DE3); IMAC and SEC

## Est16 (uncultured bacterium)
[1]
  Km: 969.5 ± 42.5 µM
  Vmax: 22.9 µM/min
  kcat: 24.5 ± 0.535 s⁻¹
  kcat/Km: 25000 ± 1670 M⁻¹ s⁻¹
[2]
  Km: 628.6 ± 101.4 µM
  Vmax: 128 µM/min
  kcat: 137 ± 9.19 s⁻¹
  kcat/Km: 223000 ± 36700 M⁻¹ s⁻¹
[3]
  Km: 1066.0 ± 116.9 µM
  Vmax: 82.7 µM/min
  kcat: 88.4 ± 4.81 s⁻¹
  kcat/Km: 83300 ± 10000 M⁻¹ s⁻¹
[4]
  Km: 225.1 ± 31.8 µM
  Vmax: 206 µM/min
  kcat: 220 ± 9.72 s⁻¹
  kcat/Km: 998000 ± 142000 M⁻¹ s⁻¹
[5]
  Km: 320.4 ± 32.5 µM
  Vmax: 197 µM/min
  kcat: 211 ± 7.26 s⁻¹
  kcat/Km: 665000 ± 66700 M⁻¹ s⁻¹
